# Results as given in paper PMC8282340 (2021).
# Read-outs that look alike come from different tables or passages of the source.
# B1: fluorescent BID peptide (peptide)
# chain: QEDIIRNIARHLAQVGDSMDR
# HELM: PEPTIDE1{[O=C1OC2(c3ccc(O)cc3Oc3cc(O)ccc32)c2ccc(C(=O)[*:2])cc21].[O=C(CCCCCN[*:1])[*:2]].Q.E.D.I.I.R.N.I.A.R.H.L.A.Q.V.G.D.S.M.D.R.[am]}$$$$V2.0
# SMILES: CC[C@H](C)[C@H](NC(=O)[C@H](CC(N)=O)NC(=O)[C@H](CCCNC(=N)N)NC(=O)[C@@H](NC(=O)[C@@H](NC(=O)[C@H](CC(=O)O)NC(=O)[C@H](CCC(=O)O)NC(=O)[C@H](CCC(N)=O)NC(=O)CCCCCNC(=O)c1ccc2c(c1)C(=O)OC21c2ccc(O)cc2Oc2cc(O)ccc21)[C@@H](C)CC)[C@@H](C)CC)C(=O)N[C@@H](C)C(=O)N[C@@H](CCCNC(=N)N)C(=O)N[C@@H](Cc1c[nH]cn1)C(=O)N[C@@H](CC(C)C)C(=O)N[C@@H](C)C(=O)N[C@@H](CCC(N)=O)C(=O)N[C@H](C(=O)NCC(=O)N[C@@H](CC(=O)O)C(=O)N[C@@H](CO)C(=O)N[C@@H](CCSC)C(=O)N[C@@H](CC(=O)O)C(=O)N[C@@H](CCCNC(=N)N)C(N)=O)C(C)C
# B2: fluorescent NOXA peptide (peptide)
# chain: AELEVECATQLRRFGDKLNFRQKLL
# HELM: PEPTIDE1{[O=C1OC2(c3ccc(O)cc3Oc3cc(O)ccc32)c2ccc(C(=O)[*:2])cc21].[O=C(CCCCCN[*:1])[*:2]].A.E.L.E.V.E.C.A.T.Q.L.R.R.F.G.D.K.L.N.F.R.Q.K.L.L.[am]}$$$$V2.0
# SMILES: CC(C)C[C@H](NC(=O)[C@H](CC(C)C)NC(=O)[C@H](CCCCN)NC(=O)[C@H](CCC(N)=O)NC(=O)[C@H](CCCNC(=N)N)NC(=O)[C@H](Cc1ccccc1)NC(=O)[C@H](CC(N)=O)NC(=O)[C@H](CC(C)C)NC(=O)[C@H](CCCCN)NC(=O)[C@H](CC(=O)O)NC(=O)CNC(=O)[C@H](Cc1ccccc1)NC(=O)[C@H](CCCNC(=N)N)NC(=O)[C@H](CCCNC(=N)N)NC(=O)[C@H](CC(C)C)NC(=O)[C@H](CCC(N)=O)NC(=O)[C@@H](NC(=O)[C@H](C)NC(=O)[C@H](CS)NC(=O)[C@H](CCC(=O)O)NC(=O)[C@@H](NC(=O)[C@H](CCC(=O)O)NC(=O)[C@H](CC(C)C)NC(=O)[C@H](CCC(=O)O)NC(=O)[C@H](C)NC(=O)CCCCCNC(=O)c1ccc2c(c1)C(=O)OC21c2ccc(O)cc2Oc2cc(O)ccc21)C(C)C)[C@@H](C)O)C(N)=O
# What was measured:
# Test in all cases: FP
# [1] = target: L4-3
# [2] = target: T1, hsMCL-1 variant L1-1 (human, UniProt Q07820)
# [3] = target: L3-3
# [4] = target: L3-1
# [5] = target: B2-1
# [6] = target: B3-1
# [7] = target: B1-3
# [8] = target: B4-2
# [9] = target: GST only (Schistosoma japonicum)
# [10] = target: human BCL-2 fused to the N-terminal half of T7 RNAP (human)
# [11] = target: B2-1; remark: listed apart in the source
# [12] = target: B3-1; remark: listed apart in the source
# [13] = target: B1-3; remark: listed apart in the source
# [14] = target: B4-2; remark: listed apart in the source
# [15] = target: L4-3; remark: listed apart in the source
# [16] = target: T1, hsMCL-1 variant L1-1; remark: listed apart in the source
# [17] = target: L3-3; remark: listed apart in the source
# [18] = target: L3-1; remark: listed apart in the source
# human BCL-2 fused to the N-terminal half of T7 RNAP (human), sequence (chain, as listed by the source): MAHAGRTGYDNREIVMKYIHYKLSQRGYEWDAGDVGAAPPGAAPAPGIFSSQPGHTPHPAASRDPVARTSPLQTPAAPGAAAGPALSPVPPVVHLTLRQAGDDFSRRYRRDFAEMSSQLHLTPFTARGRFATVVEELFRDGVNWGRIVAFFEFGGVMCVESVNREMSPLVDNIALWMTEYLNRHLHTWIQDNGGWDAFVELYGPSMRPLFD
Binder,Kd [1],Kd [2],Kd [3],Kd [4],Kd [5],Kd [6],Kd [7],Kd [8],Kd [9],Kd [10],Kd [11],Kd [12],Kd [13],Kd [14],Kd [15],Kd [16],Kd [17],Kd [18]
B1,18.7 nM,5.38 nM,9.29 nM,25.3 nM,43.3 nM,33.4 nM,7.21 nM,5.16 nM,> 1000 nM,87.6 nM,–,–,–,–,–,–,–,–
B2,–,–,–,–,–,–,–,–,> 1000 nM,948 nM,340 nM,53.4 nM,137 nM,186 nM,> 1000 nM,489 nM,> 1000 nM,949 nM
